{"source": "patent US20150190489A1", "about": "(ONCOTHERAPY SCIENCE, published 2015)", "binders": {"B1": {"name": "KIF20A (60-84) (peptide)", "peptide": "DSMEKVKVYLRVRPLLPSELERQED", "notes": "Synthetic long peptide (purity >90%), pulsed on PBMCs, DCs or L-cell transfectants; also called KIF20A (60-84) LP; KIF20A (60-84) peptide"}}, "molecular_target": "T1, HLA-DR15 (DRB1*15:02) (human)", "T1 construct": "whole, on cells; Expressed on mouse fibroblast L-cells (L-DR15) or on donor APCs; also called L-DR15", "assay": "concluded from IFN-gamma ELISPOT with peptide-pulsed L-DR15 cells and HLA-blocking mAbs; no direct binding assay", "protocol": "The immune response of Th cells to APCs pulsed with peptides and proteins were assessed by IFN-gamma ELISPOT assays (Human IFN-gamma ELISPOT kit, BD Biosciences) as described previously (Tomita Y, et al. Cancer Sci; 102: 697-705.). Briefly, the frequency of peptide-specific CD4⁺ T cells producing IFN-gamma per 3×10⁴ bulk CD4⁺ T cells upon stimulation with peptide-pulsed PBMCs (3×10⁴), or 1×10⁴ bulk CD4⁺ T cells upon stimulation with peptide-pulsed L-cells (5×10⁴/well) expressing HLA-DR was analyzed. The frequency of cells producing IFN-gamma per 1×10⁵ CTLs upon stimulation with peptide-pulsed T2 cells (2×10⁴/well) or C1R-A2402 cells (2×10⁴/well) was also analyzed. Alternatively, 5×10³ protein-loaded DCs were co-cultured with 2×10⁴ CD4⁺ T cell clones/well. The protein-loaded mature DCs were prepared from positively isolated CD14⁺ cells (day 0) as described previously (Harao M, et al. Int J Cancer 2008; 123: 2616-25.). On day 5, the DCs were cultured in the presence of the recombinant KIF20A (50 micro-g/ml) and OK432. The protein-loaded mature DCs were harvested on day 7, washed and used as stimulator in IFN-gamma ELISPOT assays. […]", "data": [{"binder": "B1", "values": [{"measurement": "binding result", "result": "binds"}]}]}
